Data from paper PMC3364340.

How the values were obtained:
[1] = molecular target: TrkA, on human TF1 erythroleukemia cells (human (endogenous in TF1)) (UniProt P04629)
[2] = molecular target: p75NTR, endogenous in rat primary hippocampal neurons (rat (endogenous in rat hippocampal neurons)) (UniProt P07174)
Chain of UniProt P07174 (P07174 30-425): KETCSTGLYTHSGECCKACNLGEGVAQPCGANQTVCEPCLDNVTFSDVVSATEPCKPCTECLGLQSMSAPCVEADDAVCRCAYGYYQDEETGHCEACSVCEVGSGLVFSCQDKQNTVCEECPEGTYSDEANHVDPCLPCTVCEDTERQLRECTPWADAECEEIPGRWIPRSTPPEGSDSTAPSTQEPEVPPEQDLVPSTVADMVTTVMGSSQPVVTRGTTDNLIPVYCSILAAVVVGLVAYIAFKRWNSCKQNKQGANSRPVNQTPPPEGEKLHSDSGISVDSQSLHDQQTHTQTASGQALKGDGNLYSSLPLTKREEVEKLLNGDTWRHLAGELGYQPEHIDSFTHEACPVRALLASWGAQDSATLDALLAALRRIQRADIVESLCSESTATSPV

Chain of UniProt P04629 (P04629 33-796): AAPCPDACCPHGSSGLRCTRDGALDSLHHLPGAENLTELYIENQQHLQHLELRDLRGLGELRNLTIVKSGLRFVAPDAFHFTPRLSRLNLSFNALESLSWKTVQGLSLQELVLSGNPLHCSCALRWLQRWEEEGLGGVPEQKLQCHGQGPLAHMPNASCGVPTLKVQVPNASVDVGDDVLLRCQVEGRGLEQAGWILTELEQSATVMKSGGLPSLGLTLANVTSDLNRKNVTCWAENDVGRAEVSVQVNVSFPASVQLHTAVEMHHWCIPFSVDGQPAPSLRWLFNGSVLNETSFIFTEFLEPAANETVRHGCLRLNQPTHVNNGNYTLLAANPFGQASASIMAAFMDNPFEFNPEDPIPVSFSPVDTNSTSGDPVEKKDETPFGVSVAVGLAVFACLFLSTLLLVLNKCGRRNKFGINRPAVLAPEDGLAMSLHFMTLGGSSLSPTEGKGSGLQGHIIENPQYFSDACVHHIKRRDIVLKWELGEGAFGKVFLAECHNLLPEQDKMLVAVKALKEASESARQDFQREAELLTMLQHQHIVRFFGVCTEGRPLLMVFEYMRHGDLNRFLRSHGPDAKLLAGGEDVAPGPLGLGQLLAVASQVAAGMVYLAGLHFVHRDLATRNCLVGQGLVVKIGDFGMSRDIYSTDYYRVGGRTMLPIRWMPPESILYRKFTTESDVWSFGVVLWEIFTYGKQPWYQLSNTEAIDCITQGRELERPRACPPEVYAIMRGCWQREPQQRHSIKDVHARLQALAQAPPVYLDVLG

“hNGFP61S, human NGF tagged with the single-residue epitope P61S (ligand)” showed a proliferative index, proliferation of human TF1 cells expressing TrkA [1] of 1.68 ng/mL.

“hNGFP61S/R100E, double mutant of human NGF ("painless" hNGF) (ligand)” was tested, and the proliferative index, proliferation of human TF1 cells expressing TrkA [1] was 1.89 ng/mL and the c-jun Ser63 phosphorylation in hippocampal neurons (Western blot, site-specific anti-phospho c-jun antibody), reduction with respect to hNGF or hNGFP61S [2] was 30%.

Work on “hNGFR100E, human NGF mutant R100E (from UniProt P01138 122-241) (ligand)” yielded a proliferative index, proliferation of human TF1 cells expressing TrkA [1] of 1.28 ng/mL and a c-jun Ser63 phosphorylation in hippocampal neurons (Western blot, site-specific anti-phospho c-jun antibody), reduction with respect to hNGF or hNGFP61S [2] of 30%.
